Test results as given in a protein production outcome set (Wang et al. 2014).

Experiment: label from the status in PepcDB records

MTSLTQRSSGLVQRRTEASRNAADKERAAGGGAGSSEDDAQSRRDEQDDDDKGDSKETRLTLMEEVLLLGLKDREGYTSFWNDCISSGLRGCMLIELALRGRLQLEACGMRRKSLLTRKVICKSDAPTGDVLLDEALKHVKETQPPETVQNWIELLSGETWNPLKLHYQLRNVRERLAKNLVEKGVLTTEKQNFLLFDMTTHPLTNNNIKQRLIKKVQEAVLDKWVNDPHRMDRRLLALIYLAHASDVLENAFAPLLDEQYDLATKRVRQLLDLDPEVECLKANTNEVLWAVVAAFTK
protein production: failed

MSLDNLDVICIGAAIVDIPLQPVSKNIFDVDSYPLERIAMTTGGDAINEATIISRLGHRTALMSRIGKDAAGQFILDHCRKENIDIQSLKQDVSIDTSINVGLVTEDGERTFVTNRNGSLWKLNIDDVDFARFSQAKLLSLASIFNSPLLDGKALTEIFTQAKARQMIICADMIKPRLNETLDDICEALSYVDYLFPNFAEAKLLTGKETLDEIADCFLACGVKTVVIKTGKDGCFIKRGDMTMKVPAVAGITAIDTIGAGDNFASGFIAALLEGKNLRECARFANATAAISVLSVGATTGVKNRKLVEQLLEEYEGEGHHHHHH
protein production: not failed

MAQFLEKATSALSEAKESVTSTAESVTASLTDAEKTVNQTARSTLTDAETTVAASVETVKTEAAAAPDKASGVSTQAKDAVDKAFSRGIEGAKSLLQTFEAKSSDISSKLVGGVTNLVSGASSSTVANRDLPVSTDNQPLLASGEKTPWWKNCCGVLDLFKKDT
protein production: failed

MRVISRNLTAWSAGLIVVAIFLGAWLSHPLHRISGFAVTPAPVGTESLPPKASYSSRFASSDLNDFVHSSAVTALPGGDLMSVWFAGSREGAGDVEIRTSRFDAQAEEWGGEQVLATRESTQTGTGKYIRKLGNPVIALAPDNRLWLFYVSVSVGGWAGSSVNAMVSSDMGASWSAPRQLVTSPFLNISTLVRGAPVFHADGSIGLPVYHEFLGKFAEYLYLSADGEVIDKFRISRGKNSLQPTVVPLDGQRAVALLRYAGETFHRVLASRTEDGGQTWSEPYPLAPSNPNSSLAAVGVPGKGLLVALNDLREGRFKLSLYSTDEQMKVWRPLPDLDKSPDPLGTPFSLEVYKEVIGQGFRASSGALRQPMEAEFLSNLDQRVCAPQGCDFEYEYPYFIRSPDGLYHLVYSWNNTFIKHVSFNEAWLAEQLL
protein production: failed

MMNDYLNFLDGRVSVRRFDPDAVLPNDLIKDMLEHASYAPSGNNFQPWRVVVVKNKNKQEDLKKLAALQPQVATASAVFLLFGDENAYDLTWWQEFHVQKGIITKDEAAARAERIRQYFDLHPEDKETQGLRLDVGLFAMNLMQVVRVYGYDSVPMRGVDFDAIKTYLDMPNGWEPILMLPVGKALQAGNPHVRKSVAEFAEIIE
protein production: not failed

MPNNDSFYKKVLDNLYDGIYFVDEQRRITYWNKGAQMLTGYGEKEVIGRNCHDIFLHLDSNGNGICSDACPIEKTITDGRKRDEESFLHHKDGHLVPVCLRVAPIQDTDGQMVVAVEVTGDHSPRHALRQQLENLQRLALCDPLTTIANRRYVEMSLNSRLEEMRRYGWHFGILFLDVDHFKQINDTHGHDTGDRVLKMVAKTLVNSARSFDVVGRWGGEEFIAVLANISRRQLPRIADRFRHLVEQSSFRLDDRLLRVTVSVGATMSHLDDTVESLVQRADTLMYRSKQAGRNCVSIGFGEEMPETSATPSASP
protein production: failed

MFESAEVGHSIDKDTYEKAVIELREALLEAQFELKQQARFPVIILINGIEGAGKGETVKLLNEWMDPRLIEVQSFLRPSDEELERPPQWRFWRRLPPKGRTGIFFGNWYSQMLYARVEGHIKEAKLDQAIDAAERFERMLCDEGALLFKFWFHLSKKQLKERLKALEKDPQHSWKLSPLDWKQSEVYDRFVHYGERVLRRTSRDYAPWYVVEGADERYRALTVGRILLEGLQAALATKERAKRQPHAAPLVSSLDNRGLLDSLDLGQYLDKDAYKEQLAAEQARLAGLIRDKRFRQHSLVAVFEGNDAAGKGGAIRRVTDALDPRQYHIVPIAAPTEEERAQPYLWRFWRHIPARRQFTIFDRSWYGRVLVERIEGFCAPADWLRAYGEINDFEEQLSEYGIIVVKFWLAIDKQTQMERFKEREKTPYKRYKITEEDWRNRDKWDQYVDAVGDMVDRTSTEIAPWTLVEANDKRFARVKVLRTINDAIEAAYKKDK
protein production: not failed

MRIQIQKLSYRDIDSFIELLDVFEEVFEMKNFEMPSVEHLEELLGKDDFFVFVARSEGTIVGGLTAYSLTQYFSKSPLLYIYDVAVMKRHQRKGIGKKLIMGIKDYCKDSDIGEIIVQADEADEHAIEFYQSTGAKAAKVVQFYYALNG
protein production: failed

MAKKTSSKWYSTSAFSRLEKLGLRHPKPSPFIGNLTFFRQGFWESQMELRKLYGPLCGYYLGRRMFIVISEPDMIKQVLVENFSNFTNRMASGLEFKSVADSVLFLRDKRWEEVRGALMSAFSPEKLNEMVPLISQACDLLLAHLKRYAESGDAFDIQRCYCNYTTDVVASVAFGTPVDSWQAPEDPFVKHCKRFFENVELLGTPWLQVYNNFPALLDARILPNKNRDELNGFFNKLIRNVIALRDQQAAEERRRDFLQMVLDARHSASPMGVQDFDIVRDVFSSTGCKPNPSRQHQPSPMARPLTVDEIVGQAFIFLIAGYEIITNTLSFATYLLATNPDCQEKLLREVDVFKEKHMAPEFCSLEEGLPYLDMVIAETLRMYPPAFRFTREAAQDCEVLGQRIPAGAVLEMAVGALHHDPEHWPSPETFNPERFTAEARQQHRPFTYLPFGAGPRSCLGVRLGLLEVKLTLLHVLHKFRFQACPETQVPLQLESKSALGPKNGVYIKIVSRHHHH
protein production: failed

MKALFFTRMFTLMVSCLMYLSIVKEDNWFGYVFIAAGAAMYAANHVLLTKETNAIWFCLIDIAIGFSFGFIFPGTGLFIIMLCPVAVAFFLRGFPKRTAWSVLCLSSILFLTVLIRTYAMFGNEFVIDHLTSMTFVVFCGVVGKLIRKLLDAQDTAKQQFQELTESHLALSAAHQELHLYAKQVEELTAIYERNRMAREIHDTVGHKMTALLVQLQLLREWQKRDSQKADETVGVCETLAREALDDVRLSVRTLQTENDPSLIESLKQLTEDFCKNAGVTTEFAVSGDPAIIPLSLHPTLIRTVQEALTNAKRHGGAAACSIQLACTTDSISLVIKDDGKGNPEAALGFGLLNMKKRAAEHGGMIRFESERDQGFTVNAEFSLANKKWSFGPVQQKESLS
protein production: failed

MARTLFLEEGPMFFEKIAPYTYRIPRQGKMRVDAVFFASKEILKDLEAENYASLQQLMNVATLPGIVEPALAMPDIHWGYGFPIGGVAAFDPEEGGVVSPGGVGFDINCGVRLLASHLTLEDLLPRQKELADALYRLVPSGVGSERRDVRFSKRELKEILKEGAGWLVKRGYGYPEDVRFIESQGRLPWANPDKVSERAFERGAPQIGTLGSGNHFLEVQYVDEVYDEEAALAFGLFKGQVTVLIHTGSRGLGHQVCQDYVERFLKVAPRYGIELVDKQLAAAPIKSPEGQDYLQAMAAAANFAFANRQLIAHFVREAFEKVGFTPRDHGLRVLYDLAHNNAKFEEHRGRRVLVHRKGATRAFGPGHPEVPEEYRRVGQPVLVPGDMGRYSYVLAGTEKAMEVSFGSSCHGAGRKMSRHQAKKVARERNLVKELAERGILVRAATRATVDEEMPEAYKDVSLVVEAVEGAGIGKKVARLRPLIVVKG
protein production: not failed

MSVDIVHLADSELGKIVALLATSITIVPLFKRLGLGSVLGYLVAGCLIGPSVLGLFQNPQSIVHMAELGVVMFLFIIGLEMHPELLWSMRKAIFGRGFLQVLTCGTLLTFAGIHLIGLTTAVAFVVGAGFTLSSTAIVMQVLEDKGISSAPKGQRIVSTLLFEDLAIVPLLASMTFLAPSTEGATTGINSAAISIAVIGIIILVASSKWIMNPLFRMISKAKVREMMTAAALLVVLGAALLMELSGLSMAMGAFVAGVMLSESSFRHQLEADIEPFRGLLLGLFFMGVGMSLDLKFVFDDLFLLLSLVVILVLGKAISVYVIGLLTLLSHREALMRMSIMSHGGEFAFVLFSAAAAVGILDEDQQATFTAAVIISMLLSPLVVLMVQRIMTRKAKPEAPSMAGIEVAEDLENSVIVIGFGRFSQIVCQILLARGITVTVIDANTDRIRAAARFGFKVYYGDGTRLDVLRASGLAKADCVVLGINDPTRSASIVEQIKHEFPLMPIFARTYDRYSAIQLTKLHVDFQIRETFESALVLSKATMMKLGIDEVEALEVIESVRVLDKERFKEELIYGTSAELIRKYFTPKPLVKPQQPAEALNEYAAEILAETDESQHCQDNLNKKADV
protein production: failed

MGHHHHHHSHMSPFLRIGLSNFDCGSCQSCQGEAVNPYCAVLVKEYVESENGQMYIQKKPTMYPPWDSTFDAHINKGRVMQIIVKGKNVDLISETTVELYSLAERCRKNNGKTEIWLELKPQGRMLMNARYFLEMSDTK
protein production: not failed
